# Experimental data published in US20250230247A1 (DREN BIO, published 2025).
# Where a chain is given by its changes, count along the chain named.
# T1: human Dectin-1 (biosensor tests of Tables 3, 4A and 9; construct not stated) (human, UniProt Q9BXN2 66-247, limits assumed)
# T1 construct: also called hDectin-1
# T1 sequence (looked up): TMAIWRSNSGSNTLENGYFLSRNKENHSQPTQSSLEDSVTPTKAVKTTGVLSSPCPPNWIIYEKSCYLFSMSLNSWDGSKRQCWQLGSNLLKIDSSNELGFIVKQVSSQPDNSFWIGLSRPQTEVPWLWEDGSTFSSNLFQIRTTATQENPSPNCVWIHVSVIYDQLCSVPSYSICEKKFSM
# T2: human Dectin-1 isoform A (human, UniProt Q9BXN2 1-247)
# T2 construct: also called hDectin-1a; Dectin-1 on HEK-Blue hDectin-1a cells
# T2 sequence: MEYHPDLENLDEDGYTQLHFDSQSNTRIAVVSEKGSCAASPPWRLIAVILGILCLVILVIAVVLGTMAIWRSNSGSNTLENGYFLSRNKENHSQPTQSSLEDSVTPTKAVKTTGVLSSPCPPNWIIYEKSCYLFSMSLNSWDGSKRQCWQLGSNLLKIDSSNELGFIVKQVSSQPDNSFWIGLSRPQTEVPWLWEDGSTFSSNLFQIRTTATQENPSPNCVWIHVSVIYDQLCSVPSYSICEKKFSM
# B1: 2M24A.26 hFab H4 (Fab, V domains shown)
# VH: QVQLVQSGAEVKKPGASVKVSCKSSGYTFTDYYMHWVRQAPGQGLEWMGWINPNSGDTNYAQKFQGRVTMTRDTSISTAYMELSRLRSDDTAVYYCARNSGSYSFGYWGQGTLVTVSS
# VL: DIQMTQSPSSVSASVGDRVTITCRASQGISSWLAWYQQKPGKAPKLLIFGASSLQSGVPSRFSGSGSGTDFTLTVSSLQPEDFATYYCQQAYSFPFTFGPGTKVDIE
# notes: Fab; also called 2M24.H4
# B2: 2M24A.24 hFab H2 (Fab, V domains shown)
# VH: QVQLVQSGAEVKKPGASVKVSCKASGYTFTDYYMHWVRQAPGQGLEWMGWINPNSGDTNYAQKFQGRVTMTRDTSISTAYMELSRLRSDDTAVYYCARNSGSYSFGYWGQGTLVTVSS
# VL: B1 VL
# notes: Fab; also called 2M24.H2
# B3: 2M24A.23 hFab H1 (Fab, V domains shown)
# VH: B1 VH with M34I
# VL: B1 VL
# notes: Fab; also called 2M24.H1
# B4: 2M24A.25 hFab H3 (Fab, V domains shown)
# VH: B1 VH with S24A, M34I
# VL: B1 VL
# notes: Fab; also called 2M24.H3
# B5: 2M24A.1.4 hFab (Fab, V domains shown)
# VH: B1 VH with M34I, V68I, M81L, Y94F, Y103A
# VL: B1 VL with Y92A
# notes: Fab; also called 2M24.1.4
# B6: 2M24A.1.7 hFab (Fab, V domains shown)
# VH: B1 VH with M34I, D57A, V68I, M81L, Y94F
# VL: B1 VL with Y92F
# notes: Fab; also called 2M24.1.7
# B7: 2M24A.1.3 hFab (Fab, V domains shown)
# VH: B1 VH with M34I, V68I, M81L, Y94F, N99A
# VL: B1 VL with Y92A
# notes: Fab; also called 2M24.1.3
# B8: 2M24A.1.5 hFab (Fab, V domains shown)
# VH: B1 VH with M34I, V68I, M81L, Y94F
# VL: B1 VL with Y92A
# notes: Fab; also called 2M24.1.5
# B9: 2M24A.1.6 hFab (Fab, V domains shown)
# VH: B1 VH with D31A, M34I, V68I, M81L, Y94F
# VL: B1 VL with Y92F
# notes: Fab; also called 2M24.1.6
# B10: 2M24A.1.11 hFab (Fab, V domains shown)
# VH: B1 VH with D31A, M34I, V68I, M81L, Y94F
# VL: B1 VL
# notes: Fab; also called 2M24.1.11
# B11: 2M24A.1.23 (Fab, V domains shown)
# VH: B1 VH with M34I, V68I, M81L, Y94F
# VL: B1 VL with Q89A
# notes: Fab; also called 2M24.1.23
# B12: 2M24A.1.2 hFab (Fab, V domains shown)
# VH: B1 VH with M34I, D57A, V68I, M81L, Y94F
# VL: B1 VL with Y92A
# notes: Fab; also called 2M24.1.2
# B13: 2M24A.1.29 (Fab, V domains shown)
# VH: B1 VH with M34I, V68I, M81L, Y94F
# VL: B1 VL with T97A
# notes: Fab; also called 2M24.1.29
# B14: 2M24A.1.12 hFab (Fab, V domains shown)
# VH: B1 VH with M34I, D57A, V68I, M81L, Y94F
# VL: B1 VL
# notes: Fab; also called 2M24.1.12
# B15: 2M24A.1.25 (Fab, V domains shown)
# VH: B1 VH with M34I, V68I, M81L, Y94F
# VL: B1 VL with S93A
# notes: Fab; also called 2M24.1.25
# B16: 2M24A.1.22 (Fab, V domains shown)
# VH: B1 VH with M34I, V68I, M81L, Y94F, Y107A
# VL: B1 VL
# notes: Fab; also called 2M24.1.22
# B17: 2M24A.1.18 (Fab, V domains shown)
# VH: B1 VH with M34I, V68I, M81L, Y94F, S102A
# VL: B1 VL
# notes: Fab; also called 2M24.1.18
# B18: 2M24A.1.19 (Fab, V domains shown)
# VH: B1 VH with M34I, V68I, M81L, Y94F, S104A
# VL: B1 VL
# notes: Fab; also called 2M24.1.19
# B19: 2M24A.1.1 hFab (Fab, V domains shown)
# VH: B1 VH with D31A, M34I, V68I, M81L, Y94F
# VL: B1 VL with Y92A
# notes: Fab; also called 2M24.1.1
# B20: 2M24A.1.21 (Fab, V domains shown)
# VH: B1 VH with M34I, V68I, M81L, Y94F, G106A
# VL: B1 VL
# notes: Fab; also called 2M24.1.21
# B21: 2M24A.1.28 (Fab, V domains shown)
# VH: B1 VH with M34I, V68I, M81L, Y94F
# VL: B1 VL with F96A
# notes: Fab; also called 2M24.1.28
# B22: 2M24A.1.17 (Fab, V domains shown)
# VH: B1 VH with M34I, V68I, M81L, Y94F, G101A
# VL: B1 VL
# notes: Fab; also called 2M24.1.17
# B23: 2M24A.1.24 (Fab, V domains shown)
# VH: B1 VH with M34I, V68I, M81L, Y94F
# VL: B1 VL with Q90A
# notes: Fab; also called 2M24.1.24
# B24: 2M24A.1.26 (Fab, V domains shown)
# VH: B1 VH with M34I, V68I, M81L, Y94F
# VL: B1 VL with F94A
# notes: Fab; also called 2M24.1.26
# B25: 2M24A.1.8 hFab (Fab, V domains shown)
# VH: B1 VH with M34I, V68I, M81L, Y94F, N99A
# VL: B1 VL with Y92F
# notes: Fab; also called 2M24.1.8
# B26: 2M24A.1.27 (Fab, V domains shown)
# VH: B1 VH with M34I, V68I, M81L, Y94F
# VL: B1 VL with P95A
# notes: Fab; also called 2M24.1.27
# B27: 2M24A.1.13 hFab (Fab, V domains shown)
# VH: B1 VH with M34I, V68I, M81L, Y94F, N99A
# VL: B1 VL
# notes: Fab; also called 2M24.1.13
# B28: 2M24A.1.16 (Fab, V domains shown)
# VH: B1 VH with M34I, V68I, M81L, Y94F, S100A
# VL: B1 VL
# notes: Fab; also called 2M24.1.16
# B29: 2M24A.1.20 (Fab, V domains shown)
# VH: B1 VH with M34I, V68I, M81L, Y94F, F105A
# VL: B1 VL
# notes: Fab; also called 2M24.1.20
# B30: 2M24A.1.10 hFab (Fab, V domains shown)
# VH: B1 VH with M34I, V68I, M81L, Y94F
# VL: B1 VL with Y92F
# notes: Fab; also called 2M24.1.10
# B31: 2M24 monospecific antibody (Example 18) (antibody, V domains shown)
# VH: B1 VH with M34I, V68I, M81L, Y94F
# VL: B1 VL
# notes: also called parental 2M24 antibody
# B32: 2M24.119 monospecific antibody (antibody, V domains shown)
# VH: B1 VH with S24A, S55E, Q65E, V68I, S100T, S102A
# VL: B1 VL with F49Y, S53D, V75I, S93G, E107K
# B33: 2M24.116 monospecific antibody (antibody, V domains shown)
# VH: B1 VH with S24A, S55E, G66E, V68I, S100T, S102A
# VL: B1 VL with F49Y, S53D, V75I, Q89H, E107K
# Target: T1, human Dectin-1 (biosensor tests of …)
# Assay: Fab K dis, run 3
# 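For delta in this document: Single-point dissociation rate (koff) fit for each variant binding domain, expressed as change versus the parental clone.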
row,Binder,koff
1,B1,0.0016 s⁻¹
2,B2,0.0015 s⁻¹
3,B3,0.00204 s⁻¹
4,B4,0.00214 s⁻¹

# Target: T1, human Dectin-1 (biosensor tests of …)
# Assay: Fab K dis, average of 3
row,Binder,koff
1,B1,0.00264 s⁻¹
2,B2,0.00346 s⁻¹
3,B3,0.00396 s⁻¹
4,B4,0.0037 s⁻¹

# Target: T1, human Dectin-1 (biosensor tests of …)
# Assay: Octet response; as to X = 340: time not given here; as to X = 470: time not given here
Binder,X = 340,X = 470,X = 290,X = 350
B5,0,0,,
B6,0.51,0.398,,
B7,0,0,,
B8,0.3,0.014,,
B9,0.493,0.39,,
B10,0.499,0.418,,
B11,,,0.128,0.104
B12,0.331,0.006,,
B13,0.456,0.35,,
B14,0.49,0.399,,
B15,0.475,0.432,,
B16,,,0.131,0.112
B17,,,0.138,0.124
B18,,,0.126,0.0983
B19,0.305,0.006,,
B20,,,0.125,0.114
B21,0.309,0.031,,
B22,,,0.131,0.129
B23,,,0.115,0.073
B24,0.231,0.018,,
B25,0.042,0,,
B26,0.483,0.393,,
B27,0.028,0,,
B28,,,0.12,0.114
B29,,,0.0981,0.0215
B30,0.49,0.402,,

# Target: T1, human Dectin-1 (biosensor tests of …)
# Assay: Fab K dis, run 1
row,Binder,koff
1,B1,0.0053 s⁻¹
2,B2,0.00826 s⁻¹
3,B3,0.00841 s⁻¹
4,B4,0.00765 s⁻¹

# Target: T2, human Dectin-1 isoform A
# Assay: flow cytometry on HEK Blue Dectin 1a cells (MFI)
row,Binder,EC50
1,B31,0.343 nM
2,B32,0.393 nM
3,B33,0.37 nM

# Target: T1, human Dectin-1 (biosensor tests of …)
# Assay: Fab K dis, run 2
row,Binder,koff
1,B1,0.00102 s⁻¹
2,B2,0.000616 s⁻¹
3,B3,0.00143 s⁻¹
4,B4,0.00132 s⁻¹

# Target: T1, human Dectin-1 (biosensor tests of …)
# Assay: Octet
# Method: Variant binding domains were generated, and binding affinity to human Dectin-1 was measured by biosensor (Octet). Single point off rate fits (k off) were determined for each clone and compared to the parental clone (delta), as shown in FIG. 71.
row,Binder,delta
1,B6,22%
2,B8,95%
3,B9,21%
4,B10,16%
5,B11,18%
6,B12,98%
7,B13,23%
8,B14,19%
9,B15,9%
10,B16,15%
11,B17,9%
12,B18,22%
13,B19,98%
14,B20,8%
15,B21,90%
16,B22,1%
17,B23,36%
18,B24,92%
19,B25,100%
20,B26,19%
21,B27,100%
22,B28,5%
23,B29,78%
24,B30,18%
